Laboratory results published in patent US20240270821A1, “GIP/GLP1/GCG TRI-RECEPTOR AGONISTS AND USES THEREOF” (priority 2023, published 2024).

B1: Example 433 (peptide)
chain: YXQGTXTSDYSILLDKKAQXAFIEYLEEGGPSSGAPPPSE
modifications: synthetic construct; SITE 2: note = 2-Aminoisobutyric Acid; SITE 6: note = alpha-methyl-2-fluoro-L-phenylalanine; SITE 17: note = Lysine is chemically modified through conjugation of the epsilon-amino group of the Lysine side chain with (gamma-Glu)2-CO-(CH2)16-CO2H; SITE 20: note = 2-Aminoisobutyric
B2: Example 431 (peptide)
chain: YXQGTXTSDYSIXLDKKAQXAFIEYLEEGGPSSGAPPPSEG
modifications: synthetic construct; SITE 2: note = 2-Aminoisobutyric Acid; SITE 6: note = alpha-methyl-2-fluoro-L-phenylalanine; SITE 13: note = alpha-methyl-leucine; SITE 17: note = Lysine is chemically modified through conjugation of the epsilon-amino group of the Lysine side chain with (2-[2-(2-Amino-ethoxy)-et)
B3: Example 434 (peptide)
chain: YXQGTXTSDYSILLDKKAQXAFIEYLEEGGPSSGAPPPSEG
modifications: synthetic construct; SITE 2: note = 2-Aminoisobutyric Acid; SITE 6: note = alpha-methyl-2-fluoro-L-phenylalanine; SITE 17: note = Lysine is chemically modified through conjugation of the epsilon-amino group of the Lysine side chain with (gamma-Glu)2-CO-(CH2)16-CO2H; SITE 20: note = 2-Aminoisobutyric
B4: Example 435 (peptide)
chain: YXQGTXTSDYSILLDKKAQXAFIEYLEEGGPSSGAPPPSGE
modifications: synthetic construct; SITE 2: note = 2-Aminoisobutyric Acid; SITE 6: note = alpha-methyl-2-fluoro-L-phenylalanine; SITE 17: note = Lysine is chemically modified through conjugation of the epsilon-amino group of the Lysine side chain with (gamma-Glu)2-CO-(CH2)16-CO2H; SITE 20: note = 2-Aminoisobutyric
B5: Example 39 (peptide)
chain: YXQGTFTSDFSKXLDKKAQXAFIQWLLEGGPSSGAPPPSEG
modifications: Lys acylated; non-natural residues; C-amide; synthetic construct; SITE 2: note = 2-Aminoisobutyric Acid; SITE 13: note = alpha-methyl-leucine; SITE 17: note = Lysine is chemically modified through conjugation of the epsilon-amino group of the Lysine side chain with (2-[2-(2-Amino-ethoxy)-ethoxy]-acetyl)-(gamma-Glu)-CO-(CH2) 18-CO2H; SITE 20: n
B6: Example 40 (peptide)
chain: YXQGTFTSDFSKXLDKKAQXAFIEWLIEGGPSSGAPPPSEG
modifications: Aib, αMeL; lysine acylated; C-terminal amide; synthetic construct; SITE 2: note = 2-Aminoisobutyric Acid; SITE 13: note = alpha-methyl-leucine; SITE 17: note = Lysine is chemically modified through conjugation of the epsilon-amino group of the Lysine side chain with (2-[2-(2-Amino-ethoxy)-ethoxy]-acetyl)-(gamma-Glu)-CO-(CH2) 18-CO2H; SITE 20: n
B7: Example 429 (peptide)
chain: YXQGTXTSDXXIXLDXKAQXXFIEXLIEGGPSSGAPEPSEG
modifications: synthetic construct; SITE 2: note = 2-Aminoisobutyric Acid; SITE 6: note = alpha-methyl-2-fluoro-L-phenylalanine; SITE 10: note = 3-(4-Pyridyl)-L-alanine; SITE 11: note = alpha-methyl-L-serine; SITE 13: note = alpha-methyl-leucine; SITE 16: note = L-ornithine; SITE 17: note = Lysine is chemically mo
B8: Example 436 (peptide)
chain: YXQGTXTSDXXIXLDXKAQXSFIEXLIEGGPSSGEPPPE
modifications: synthetic construct; SITE 2: note = 2-Aminoisobutyric Acid; SITE 6: note = alpha-methyl-2-fluoro-L-phenylalanine; SITE 10: note = 3-(4-Pyridyl)-L-alanine; SITE 11: note = alpha-methyl-L-serine; SITE 13: note = alpha-methyl-leucine; SITE 16: note = L-ornithine; SITE 17: note = Lysine is chemically mo
B9: Example 439 (peptide)
chain: YXQGTXTSDXXIXLDXKAQXXFIEXLQEGGPSSGEPPPE
modifications: synthetic construct; SITE 2: note = 2-Aminoisobutyric Acid; SITE 6: note = alpha-methyl-2-fluoro-L-phenylalanine; SITE 10: note = 3-(4-Pyridyl)-L-alanine; SITE 11: note = alpha-methyl-L-serine; SITE 13: note = alpha-methyl-leucine; SITE 16: note = L-ornithine; SITE 17: note = Lysine is chemically mo
B10: Example 438 (peptide)
chain: YXQGTXTSDXXIXLDXKAQXXFIEXLSEGGPSSGEPPPE
modifications: synthetic construct; SITE 2: note = 2-Aminoisobutyric Acid; SITE 6: note = alpha-methyl-2-fluoro-L-phenylalanine; SITE 10: note = 3-(4-Pyridyl)-L-alanine; SITE 11: note = alpha-methyl-L-serine; SITE 13: note = alpha-methyl-leucine; SITE 16: note = L-ornithine; SITE 17: note = Lysine is chemically mo
B11: Example 444 (peptide)
chain: YXQGTXTSDXXIXLDXIAQXXFIEXLIKGGPSSGEPPPE
modifications: not fully specified; synthetic construct; SITE 2: note = 2-Aminoisobutyric Acid; SITE 6: note = alpha-methyl-2-fluoro-L-phenylalanine; SITE 10: note = 3-(4-Pyridyl)-L-alanine; SITE 11: note = alpha-methyl-L-serine; SITE 13: note = alpha-methyl-leucine; SITE 16: note = L-ornithine; SITE 20: note = 2-Aminoisobutyric Acid;
B12: Example 449 (peptide)
chain: YXQGTXTSDXXIXLDXKAQXNFIEYLIEGGPSSGEPPPE
modifications: synthetic construct; SITE 2: note = 2-Aminoisobutyric Acid; SITE 6: note = alpha-methyl-2-fluoro-L-phenylalanine; SITE 10: note = 3-(4-Pyridyl)-L-alanine; SITE 11: note = alpha-methyl-L-serine; SITE 13: note = alpha-methyl-leucine; SITE 16: note = L-ornithine; SITE 17: note = Lysine is chemically mo
B13: Example 437 (peptide)
chain: YXQGTXTSDXXIXLDXKAQXXFIEXLAEGGPSSGEPPPE
modifications: synthetic construct; SITE 2: note = 2-Aminoisobutyric Acid; SITE 6: note = alpha-methyl-2-fluoro-L-phenylalanine; SITE 10: note = 3-(4-Pyridyl)-L-alanine; SITE 11: note = alpha-methyl-L-serine; SITE 13: note = alpha-methyl-leucine; SITE 16: note = L-ornithine; SITE 17: note = Lysine is chemically mo
B14: Example 447 (peptide)
chain: YXQGTXTSDXXEXLDXKAQXXFIEXLIEGGPSSGEPPPE
modifications: synthetic construct; SITE 2: note = 2-Aminoisobutyric Acid; SITE 6: note = alpha-methyl-2-fluoro-L-phenylalanine; SITE 10: note = 3-(4-Pyridyl)-L-alanine; SITE 11: note = alpha-methyl-L-serine; SITE 13: note = alpha-methyl-leucine; SITE 16: note = L-ornithine; SITE 17: note = Lysine is chemically mo

Assays:
Assay in all cases: cell-based or functional assay
[1] = molecular target: T1, human GIP receptor (human) (UniProt P48546)
T1 sequence (looked up): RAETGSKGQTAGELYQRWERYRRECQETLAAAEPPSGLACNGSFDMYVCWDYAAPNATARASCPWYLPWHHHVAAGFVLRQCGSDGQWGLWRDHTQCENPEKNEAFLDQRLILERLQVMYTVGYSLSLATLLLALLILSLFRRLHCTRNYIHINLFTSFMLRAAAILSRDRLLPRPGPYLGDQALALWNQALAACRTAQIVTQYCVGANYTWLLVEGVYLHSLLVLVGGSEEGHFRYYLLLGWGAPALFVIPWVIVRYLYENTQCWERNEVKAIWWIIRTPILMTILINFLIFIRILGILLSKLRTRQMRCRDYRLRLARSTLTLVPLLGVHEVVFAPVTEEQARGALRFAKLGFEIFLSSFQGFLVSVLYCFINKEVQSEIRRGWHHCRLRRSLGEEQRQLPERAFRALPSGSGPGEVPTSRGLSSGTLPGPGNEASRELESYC

[2] = molecular target: human glucagon receptor (human) (UniProt P47871)
Sequence of human glucagon receptor (human) (P47871 26-477): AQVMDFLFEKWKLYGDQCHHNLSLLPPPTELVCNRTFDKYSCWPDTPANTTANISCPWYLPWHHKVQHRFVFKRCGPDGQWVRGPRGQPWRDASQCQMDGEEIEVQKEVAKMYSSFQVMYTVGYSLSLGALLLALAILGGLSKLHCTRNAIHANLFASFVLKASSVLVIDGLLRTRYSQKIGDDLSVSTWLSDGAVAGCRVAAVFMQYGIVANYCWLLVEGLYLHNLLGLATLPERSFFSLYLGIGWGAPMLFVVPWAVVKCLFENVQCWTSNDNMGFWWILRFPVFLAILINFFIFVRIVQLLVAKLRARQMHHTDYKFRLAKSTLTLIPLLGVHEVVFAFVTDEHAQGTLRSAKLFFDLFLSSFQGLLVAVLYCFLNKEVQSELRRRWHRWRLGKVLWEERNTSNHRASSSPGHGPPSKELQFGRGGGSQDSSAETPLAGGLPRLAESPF

hGLP-1R = hGLP-1R (Homo sapiens, UniProt P43220)
Sequence of hGLP-1R (P43220 24-463): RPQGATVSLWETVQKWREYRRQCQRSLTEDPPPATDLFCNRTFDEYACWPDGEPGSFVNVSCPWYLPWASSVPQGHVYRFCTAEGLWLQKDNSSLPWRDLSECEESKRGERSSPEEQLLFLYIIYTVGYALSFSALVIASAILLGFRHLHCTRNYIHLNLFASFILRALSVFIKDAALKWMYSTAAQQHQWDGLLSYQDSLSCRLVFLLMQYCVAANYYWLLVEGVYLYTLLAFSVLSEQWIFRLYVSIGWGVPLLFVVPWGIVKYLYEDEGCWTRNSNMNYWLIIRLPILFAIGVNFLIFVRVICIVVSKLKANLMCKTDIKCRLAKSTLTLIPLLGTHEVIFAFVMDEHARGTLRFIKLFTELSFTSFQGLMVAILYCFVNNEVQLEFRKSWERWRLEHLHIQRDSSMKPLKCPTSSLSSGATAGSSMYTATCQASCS

Binder | Relative cAMP EC50 [1] [nM] | cAMP Rel EC50, nM (1% HSA) [1] [nM] | Relative cAMP EC50 [2] [nM] | cAMP Rel EC50, nM (1% HSA) [2] [nM] | Relative cAMP EC50 (hGLP-1R) [nM] | cAMP Rel EC50, nM (1% HSA) (hGLP-1R) [nM] | cAMP Rel EC50 (in the presence of 1% HSA) [1] [nM] | cAMP Rel EC50 (in the presence of 1% HSA) [2] [nM] | cAMP Rel EC50 (in the presence of 1% HSA) (hGLP-1R) [nM] | Relative cAMP EC50, nM (0.1% casein) [1] [nM] | cAMP Rel EC50 (receptor-expressing HEK-293 cells, 1% HSA) [1] [nM] | Relative cAMP EC50, nM (0.1% casein) [2] [nM] | cAMP Rel EC50 (receptor-expressing HEK-293 cells, 1% HSA) [2] [nM] | Relative cAMP EC50, nM (0.1% casein) (hGLP-1R) [nM] | cAMP Rel EC50 (receptor-expressing HEK-293 cells, 1% HSA) (hGLP-1R) [nM]
B1 | 0.0206 | 15.3 | 5.78 | 532 | 0.273 | 43.4 | – | – | – | – | – | – | – | – | –
B2 | 0.0157 | 3.73 | 3.32 | 352 | 0.392 | 35.2 | – | – | – | – | – | – | – | – | –
B3 | 0.0226 | 10.6 | 2.84 | 525 | 0.236 | 35 | – | – | – | – | – | – | – | – | –
B4 | 0.0239 | 10.3 | 3.01 | 334 | 0.311 | 33.6 | – | – | – | – | – | – | – | – | –
B5 | 0.299 | – | 10.1 | – | 2.13 | – | 30.5 | 1090 | 260 | – | – | – | – | – | –
B6 | 0.139 | – | 12.3 | – | 0.693 | – | 76.7 | 2750 | 138 | – | – | – | – | – | –
B7 | 0.0142 | 1.89 | 1.19 | 138 | 0.178 | 12.1 | – | – | – | – | – | – | – | – | –
B8 | 0.0294 | 1.18 | 2.27 | 182 | 0.173 | 11.7 | – | – | – | – | – | – | – | – | –
B9 | 0.0634 | 14.6 | 4.38 | 165 | 0.293 | 15.1 | – | – | – | – | – | – | – | – | –
B10 | 0.225 | 53.8 | 3.62 | 431 | 0.815 | 41.1 | – | – | – | – | – | – | – | – | –
B11 | 0.0106 | 1.74 | 6.49 | 1280 | 0.352 | 54.6 | – | – | – | – | – | – | – | – | –
B12 | – | – | – | – | – | – | – | – | – | 0.0205 | 1.66 | 11.5 | 424 | 0.568 | 18.9
B13 | 0.0872 | 16.9 | 1.76 | 188 | 0.421 | 26.9 | – | – | – | – | – | – | – | – | –
B14 | – | – | – | – | – | – | – | – | – | 0.0177 | 1.81 | 9.71 | 1090 | 0.214 | 11.3
